Results reported in publication PMC11818005, “Elucidation of the key flavonol biosynthetic pathway in golden Camellia and its application in genetic modification of tomato fruit metabolism” (Horticulture Research, 2024).

What was measured:
Test in all cases: UPLC-UV of flavonol product, initial kinetics
Conditions in all cases: 100 mM Tricine pH 7.5, 0.1 mM FeSO4, 10 mM ascorbate, 10 mM 2-oxoglutarate, 28°C
[1] = substrate: O=C1c2c(O)cc(O)cc2O[C@H](c2ccc(O)c(O)c2)[C@H]1O; format: biochemical, Camellia nitidissima
Description: (§1) UPLC-UV of flavonol product, initial kinetics on CnFLS1

[2] = substrate: O=C1c2c(O)cc(O)cc2O[C@H](c2ccc(O)cc2)[C@H]1O; format: biochemical, Camellia nitidissima
Description: as §1

[3] = substrate: O=C1c2c(O)cc(O)cc2O[C@H](c2ccc(O)c(O)c2)[C@H]1O; format: biochemical, Arabidopsis thaliana
Description: (§2) UPLC-UV of flavonol product, initial kinetics on AtFLS1

[4] = substrate: O=C1c2c(O)cc(O)cc2O[C@H](c2ccc(O)cc2)[C@H]1O; format: biochemical, Arabidopsis thaliana
Description: as §2

B1: CnFLS1 (Camellia nitidissima) (protein)
chain: MELERVQVIASLSKCIDTIPAEYIRSENEQPAITTIQGKVLEVPVIDLSNDSDDQNIVQMVAEACRDWGIFQVVNHGIPDEVIGNLQRVGKDFFELPQEEKEVYAKPPESKSVEGYGTKLQKEVEGKKGWVDHLFHKIWPPSAINYKFWPKNPPSYREANEVYAERLRAVADKLFRWLSLGLGLEGHEVKEAVGGDDLIYLMKINYYPPCPRPDLALGVVAHTDMSTLTILVPNEVPGLQVFKDDHWYEVKYIPNALIVHIGDQIEIVSNGKYKAVFHRSTVNKETTRMSWPVFIEPSPEVEVGPHPKLIDDENPPKYKTKKYEDYMYCKLNKLPQ
[1]
  Km: 18.68 µM
  kcat: 0.02 s⁻¹
  kcat/Km: 1320 M⁻¹ s⁻¹
[2]
  Km: 60.63 µM
  kcat: 0.08 s⁻¹
  kcat/Km: 1300 M⁻¹ s⁻¹

B2: AtFLS1 (Arabidopsis thaliana) (protein)
chain: MEVERVQDISSSSLLTEAIPLEFIRSEKEQPAITTFRGPTPAIPVVDLSDPDEESVRRAVVKASEEWGLFQVVNHGIPTELIRRLQDVGRKFFELPSSEKESVAKPEDSKDIEGYGTKLQKDPEGKKAWVDHLFHRIWPPSCVNYRFWPKNPPEYREVNEEYAVHVKKLSETLLGILSDGLGLKRDALKEGLGGEMAEYMMKINYYPPCPRPDLALGVPAHTDLSGITLLVPNEVPGLQVFKDDHWFDAEYIPSAVIVHIGDQILRLSNGRYKNVLHRTTVDKEKTRMSWPVFLEPPREKIVGPLPELTGDDNPPKFKPFAFKDYSYRKLNKLPLD
notes: cloned for comparison with CnFLS1 (pET28b, E. coli Rosetta (DE3), Ni-NTA purified)
[3]
  Km: 29.89 µM
  kcat: 0.02 s⁻¹
  kcat/Km: 794 M⁻¹ s⁻¹
[4]
  Km: 95.01 µM
  kcat: 0.11 s⁻¹
  kcat/Km: 1180 M⁻¹ s⁻¹
